Measured values as given in publication PMC10965808, “The alternative coproporphyrinogen III oxidase (CgoN) catalyzes the oxygen-independent conversion of coproporphyrinogen III into coproporphyrin III” (Frontiers in Microbiology, 2024).

T1: YtpQ (CgoN) (Priestia megaterium, UniProt D5DN20)
T1 construct: gene BMD_4814; full length, 270 residues; codon-adapted synthetic gene in pGEX-6P-1, N-terminal GST tag cut off with PreScission protease; E. coli BL21(DE3); calculated 30,781 Da; monomer (35 kDa by GPC)
T1 sequence (D5DN20 1-270): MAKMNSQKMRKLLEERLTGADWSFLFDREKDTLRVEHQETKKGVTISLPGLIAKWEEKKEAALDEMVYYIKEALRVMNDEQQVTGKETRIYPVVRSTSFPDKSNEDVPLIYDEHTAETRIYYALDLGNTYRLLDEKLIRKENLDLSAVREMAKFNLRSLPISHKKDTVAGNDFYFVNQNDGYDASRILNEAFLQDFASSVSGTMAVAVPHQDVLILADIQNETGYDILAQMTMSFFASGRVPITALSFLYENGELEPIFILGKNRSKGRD

B1: YtpQ (CgoN) (Priestia megaterium DSM 319) (protein)
chain: MAKMNSQKMRKLLEERLTGADWSFLFDREKDTLRVEHQETKKGVTISLPGLIAKWEEKKEAALDEMVYYIKEALRVMNDEQQVTGKETRIYPVVRSTSFPDKSNEDVPLIYDEHTAETRIYYALDLGNTYRLLDEKLIRKENLDLSAVREMAKFNLRSLPISHKKDTVAGNDFYFVNQNDGYDASRILNEAFLQDFASSVSGTMAVAVPHQDVLILADIQNETGYDILAQMTMSFFASGRVPITALSFLYENGELEPIFILGKNRSKGRD
notes: full length, 270 residues; codon-adapted synthetic gene in pGEX-6P-1, N-terminal GST tag cut off with PreScission protease; E. coli BL21(DE3); calculated 30,781 Da; monomer (35 kDa by GPC)

Legend:
YtpQ (CgoN) = target: T1, YtpQ (CgoN); experiment: fluorescence assay, stimulation of activity by added FAD; format: biochemical; settings: 3 μM FAD; 1 μM enzyme; 10 μM coproporphyrinogen III; anaerobic; pH 7.2; 30°C; no menadione
purified protein = substrate: Cc1c2[nH]c(c1CCC(=O)O)Cc1[nH]c(c(CCC(=O)O)c1C)Cc1[nH]c(c(CCC(=O)O)c1C)Cc1[nH]c(c(C)c1CCC(=O)O)C2; experiment: purified protein; format: biochemical, Priestia megaterium; settings: anaerobic, 3 μM FAD, 5 μM menadione as electron acceptor, 1 μM enzyme, 1-20 μM substrate, HEPES pH 7.2, 0.02% Tween 80, 30°C

Row | Molecule | fluorescence assay, stimulation of activity by added FAD (YtpQ (CgoN)) | Km (purified protein) | kcat (purified protein)
1 | Cc1cc2nc3c(=O)[nH]c(=O)nc-3n(C[C@H](O)[C@H](O)[C@H](O)COP(=O)(O)OP(=O)(O)OC[C@H]3O[C@@H](n4cnc5c(N)ncnc54)[C@H](O)[C@@H]3O)c2cc1C [FAD] | FAD was identified as the electron-transferring cofactor of YtpQ | – | –
2 | B1 | – | 3.95 µM | 0.0105 s⁻¹
